Patent US12545899B2, “Luciferase enzymes for use with thermostable luciferins in bioluminescent assays” (Promega Corporation, priority 2018, dated 2026)
Changes are numbered by the printed parent chain. In names and notes the source's numbering stands.

Assays:
[1] = Kinetic analysis of thermostable variants with CS0280 (Tables 13, 14); type: biochemical; details: 2 mM ATP
[2] = Differential scanning fluorimetry (DSF) analysis; type: physicochemical
Outline: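 Thermal melt with 5× final Sypro Orange: ramp 1° C/min from 30 to 95° C, reading each 60 s, derivative of fluorescence plotted by temperature. Luciferase variants were in 20 mM HEPES pH 7.5, 200 mM NaCl, 1 mM EDTA; other enzymes in 50 mM HEPES pH 7.5, 100 mM NaCl, 2 mM EDTA.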

[3] = Luminescence at 1 mM CS0333 (Table 11); type: biochemical; details: 1 mM substrate, 1 mM ATP
Source text: (§1) Tables 10 and 11 include representative results of kinetic analysis of the thermostable variants with D/L luciferin, CS0333, and CS0280. […] MK0135 and MK0137 have amino acid substitutions that improve thermostability relative to MK0133 and MK0134, respectively, while retaining activity on the luciferin analogs CS0333 and CS0280.

[4] = Kinetic analysis of thermostable variants with D/L-luciferin (Table 10); type: biochemical
Procedure: (§2) Experiments were also conducted to evaluate the activities (i.e. Vmax and Km) of the various thermostable luciferase variants of Ppe (SEQ ID NO: 1) described above.
as §1

[5] = Kinetic analysis of thermostable variants with CS0333 (Tables 13, 14); type: biochemical; details: 2 mM ATP
[6] = Luminescence at 1 mM D/L-luciferin (Table 11); type: biochemical; details: 1 mM substrate, 1 mM ATP
Source text: as §1

[7] = Kinetic analysis of thermostable variants with CS0280 (Table 10); type: biochemical
Procedure: as §2, §1

[8] = Kinetic analysis of thermostable variants with D/L-luciferin (Tables 13, 14); type: biochemical; details: 2 mM ATP
[9] = Luminescence at 1 mM CS0280 (Table 11); type: biochemical; details: 1 mM substrate, 1 mM ATP
Source text: as §1

[10] = Kinetic analysis of thermostable variants with CS0333 (Table 10); type: biochemical
Procedure: as §2, §1

[11] = E. coli lysate screen of epPCR/DNA shuffling variants with CS0333; type: biochemical; details: Detection Reagent, 1 mM ATP, 500 μM substrate, 3 mins
Procedure: (§3) These experiments included lysing E. coli cells expressing each luciferase enzyme variant in Detection Reagent containing 1 mM ATP+500 μM substrate. The cell lysate was incubated at room temperature for 3 mins and luminescence was read. The raw luminescence reading was normalized to the on-plate luminescence of ATG-2889, which was used as a control in this screen.

[12] = E. coli lysate screen of epPCR/DNA shuffling variants with CS0280; type: biochemical; details: Detection Reagent, 1 mM ATP, 500 μM substrate, 3 mins
Procedure: as §3

[13] = Effect of individual mutations: maximum luminescence with CS0333; type: biochemical; details: 10 fM to 1 mM CS0333; Detection Reagent (DR) buffer
Procedure: Experiments were also conducted to evaluate and compare the activities of the various luciferase enzyme variants, including the effects of individual amino acid mutations. To evaluate the effect of individual mutations on luciferase enzyme variants, 0.005 mg/ml luciferase enzyme variant was mixed with 1 mM ATP+10 fM to 1 mM CS0333 in Detection Reagent (DR) buffer.

B1: MK0137: SEQ ID NO: 105; H244W+S193A+N228D+L305F+S306P+I109V+C38R+F55I+Y108F+A316W+Y339M+T342S+V348I (protein)
chain: MADKNILYGPEPFYPLEDGTAGEQMFDALSRYAAIPGRIALTNAHTKENVLYEEILKLSCRLAESFKKYGLKQNDTIAVCSENSLQFFLPVIASLYLGIIVAPVNDKFVERELIHSLGIVKPRIVFCSKNTFQKVLNVKSKLKSIETIIILDLNEDLGGYQCLNNFISQNSDSNLDVKKFKPYSFNRDDQVAAIMFSSGTTGLPKGVMLTHKNIVARFSIAKDPTFGDAINPTSAILTVIPFHWGFGMMTTLGYFTCGFRVVLMHTFEEKLFLQSLQDYKVESTLLVPTLMAFLAKSALVEKYDFPHLKEIASGGWPLSKEIGEMVKKRFKLNFVRQGMGLTEITSAVLITPKGDAKPGSTGKIVPLHAVKVVDPTTGKILGPNEPGELYFKGPMKMKGYYNNEEATKAIIDNDGWLRSGDIAYYDNDGHFYIVDRLKSLIKYKGYQVAPAEIEGILLQHPYIVDAGVTGIPDEAAGELPAAGVVVQTGKYLNEQIVQDYVASQVSTAKWLRGGVKFLDEIPKGSTGKIDRKVLRQMLEKHTNGHHHHHHHH
[1]; BrightGlo Buffer
  Km: 4.08 µM
  Vmax (RLU): 825,876 RLU
[1]; Detection Reagent Buffer
  Km: 535 µM
  Vmax (RLU): 88,972 RLU
[2]; Table 9B
  DSF Tm (° C.): 69 °C
[3]; BrightGlo Buffer
  Vmax (RLU) CS0333 BrightGlo Buffer: 3,882,620 RLU
[3]; Detection Reagent Buffer
  Vmax (RLU) CS0333 Detection Reagent Buffer: 3,127,710 RLU
[4]; BrightGlo Buffer
  Km: 36.8 nM
  Vmax (RLU): 279,889 RLU
[4]; Detection Reagent Buffer
  Km: 196 nM
  Vmax (RLU): 40,917 RLU
[5]; BrightGlo Buffer
  Km: 4.27 µM
  Vmax (RLU): 3,236,246 RLU
[5]; Detection Reagent Buffer
  Km: 18.8 µM
  Vmax (RLU): 668,831 RLU
[6]; BrightGlo Buffer
  Vmax (RLU) D/L-luciferin BrightGlo Buffer: 326,347 RLU
[6]; Detection Reagent Buffer
  Vmax (RLU) D/L-luciferin Detection Reagent Buffer: 48,315 RLU
[7]; BrightGlo Buffer
  Km: 2.92 µM
  Vmax (RLU): 2,255,088 RLU
[7]; Detection Reagent Buffer
  Km: 18.9 µM
  Vmax (RLU): 109,120 RLU
[8]; BrightGlo Buffer
  Km: 83.5 nM
  Vmax (RLU): 253,978 RLU
[8]; Detection Reagent Buffer
  Km: 306 nM
  Vmax (RLU): 29,013 RLU
[9]; BrightGlo Buffer
  Vmax (RLU) CS0280 BrightGlo Buffer: 1,931,470 RLU
[9]; Detection Reagent Buffer
  Vmax (RLU) CS0280 Detection Reagent Buffer: 117,973 RLU
[10]; BrightGlo Buffer
  Km: 7.17 µM
  Vmax (RLU): 5,453,269 RLU
[10]; Detection Reagent Buffer
  Km: 80.5 µM
  Vmax (RLU): 3,679,125 RLU

B2: MK0135: SEQ ID NO: 103; H244W+S193A+N228D+L305F+S306P+I109V+C38R+F55I+A316W+T342S+V348I (protein)
chain: B1 chain with I344A
[2]; Table 9B
  DSF Tm (° C.): 78 °C
[4]; BrightGlo Buffer
  Km: 157 nM
  Vmax (RLU): 490,914 RLU
[4]; Detection Reagent Buffer
  Km: 746 nM
  Vmax (RLU): 93,531 RLU
[7]; BrightGlo Buffer
  Km: 22 µM
  Vmax (RLU): 343,822 RLU
[7]; Detection Reagent Buffer
  Km: 150 µM
  Vmax (RLU): 15,983 RLU
[10]; BrightGlo Buffer
  Km: 43.4 µM
  Vmax (RLU): 4,782,661 RLU
[10]; Detection Reagent Buffer
  Km: 509 µM
  Vmax (RLU): 1,018,125 RLU

B3: MK0133: SEQ ID NO: 101; H244W+T344I+I396K+S193A+N228D+L305F+S306P+I109V+C38R+F55I+A316W+T342S+V348I (protein)
chain: B1 chain
[2]; Table 9B
  DSF Tm (° C.): 59 °C
[4]; BrightGlo Buffer
  Km: 130 nM
  Vmax (RLU): 1,361,878 RLU
[4]; Detection Reagent Buffer
  Km: 993 nM
  Vmax (RLU): 1,545,274 RLU
[7]; BrightGlo Buffer
  Km: 5.36 µM
  Vmax (RLU): 2,774,469 RLU
[7]; Detection Reagent Buffer
  Km: 41.6 µM
  Vmax (RLU): 266,359 RLU
[10]; BrightGlo Buffer
  Km: 14 µM
  Vmax (RLU): 27,149,096 RLU
[10]; Detection Reagent Buffer
  Km: 77.4 µM
  Vmax (RLU): 21,861,957 RLU

B4: MK0134: SEQ ID NO: 102; H244W+T344A+I396K+S193A+N228D+L305F+S306P+I109V+C38R+F55I+Y108F+A316W+Y339M (protein)
chain: B1 chain with F108Y, M339Y, T342S, V348I
[2]; Table 9B
  DSF Tm (° C.): 57 °C
[4]; BrightGlo Buffer
  Km: 25.7 nM
  Vmax (RLU): 377,267 RLU
[4]; Detection Reagent Buffer
  Km: 160 nM
  Vmax (RLU): 430,060 RLU
[7]; BrightGlo Buffer
  Km: 1.21 µM
  Vmax (RLU): 15,499,640 RLU
[7]; Detection Reagent Buffer
  Km: 6.12 µM
  Vmax (RLU): 1,208,016 RLU
[10]; BrightGlo Buffer
  Km: 2.24 µM
  Vmax (RLU): 11,167,451 RLU
[10]; Detection Reagent Buffer
  Km: 26.5 µM
  Vmax (RLU): 9,278,637 RLU

B5: C4598F8: SEQ ID NO: 60; H244W+T344A+I396K+I109V+V262A+V287I+K309N (protein)
chain: MADKNILYGPEPFYPLEDGTAGEQMFDALSRYAAIPGCIALTNAHTKENVLYEEFLKLSCRLAESFKKYGLKQNDTIAVCSENSLQFFLPVIASLYLGIIVAPVNDKYVERELIHSLGIVKPRIVFCSKNTFQKVLNVKSKLKSIETIIILDLNEDLGGYQCLNNFISQNSDSNLDVKKFKPYSFNRDDQVASIMFSSGTTGLPKGVMLTHKNIVARFSIAKDPTFGNAINPTSAILTVIPFHWGFGMMTTLGYFTCGFRVALMHTFEEKLFLQSLQDYKVESTLLIPTLMAFLAKSALVEKYDLSHLNEIASGGAPLSKEIGEMVKKRFKLNFVRQGYGLTEATSAVLITPKGDAKPGSTGKIVPLHAVKVVDPTTGKILGPNEPGELYFKGPMKMKGYYNNEEATKAIIDNDGWLRSGDIAYYDNDGHFYIVDRLKSLIKYKGYQVAPAEIEGILLQHPYIVDAGVTGIPDEAAGELPAAGVVVQTGKYLNEQIVQDYVASQVSTAKWLRGGVKFLDEIPKGSTGKIDRKVLRQMLEKHTNGHHHHHHHH
[11]
  Normalized luminescence (Mutant RLU/ATG2889 RLU) with CS0333: 4.91
[12]
  Normalized luminescence (Mutant RLU/ATG2889 RLU) with CS0280: 5.88

B6: MK0127: SEQ ID NO: 93; H244W+T344A+I396K+S193A+L305F+S306P+I109V (protein)
chain: B1 chain with R38C, I55F, K107N, F108Y, T289S, W316A, M339Y, I344A
[2]; Table 9A
  DSF Tm (° C.): 66 °C
[13]
  Vmax (RLU) with CS0333: 2,293,340 RLU

B7: MK0122: SEQ ID NO: 89; H244W+I396K+S193A+N228D+L305F+S306P+I109V (protein)
chain: B1 chain with R38C, I55F, F108Y, W316A, I344A
[2]; Table 9A
  DSF Tm (° C.): 69 °C
[13]
  Vmax (RLU) with CS0333: 962,171 RLU
